# From IntAct's records for PubMed 28712572
# Target: gbrap_human GABARAP (UniProt O95166)
# Sequence (O95166 whole entry): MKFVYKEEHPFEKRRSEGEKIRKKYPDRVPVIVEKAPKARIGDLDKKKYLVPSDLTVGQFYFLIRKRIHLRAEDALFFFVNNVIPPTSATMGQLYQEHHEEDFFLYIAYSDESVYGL
row,Substance,effect of a mutation on the interaction
1,"Pericentriolar material 1 protein (Homo sapiens), Q15154 L1971V",with no effect
2,"Pericentriolar material 1 protein (Homo sapiens), Q15154 L1971Y",with no effect
3,"Pericentriolar material 1 protein (Homo sapiens), Q15154 L1973C",with no effect
4,"Pericentriolar material 1 protein (Homo sapiens), Q15154 L1973I",with no effect
5,"Pericentriolar material 1 protein (Homo sapiens), Q15154 L1973N",with no effect
6,"Pericentriolar material 1 protein (Homo sapiens), Q15154 L1973P",with no effect
7,"Pericentriolar material 1 protein (Homo sapiens), Q15154 L1973R",with no effect
8,"Pericentriolar material 1 protein (Homo sapiens), Q15154 L1973S",with no effect
9,"Pericentriolar material 1 protein (Homo sapiens), Q15154 L1973W",with no effect
10,"Pericentriolar material 1 protein (Homo sapiens), Q15154 L1973Y",with no effect
11,"Pericentriolar material 1 protein (Homo sapiens), Q15154 N1953C",with no effect
12,"Pericentriolar material 1 protein (Homo sapiens), Q15154 N1953D",with no effect
13,"Pericentriolar material 1 protein (Homo sapiens), Q15154 N1953G",with no effect
14,"Pericentriolar material 1 protein (Homo sapiens), Q15154 N1953I",with no effect
15,"Pericentriolar material 1 protein (Homo sapiens), Q15154 N1953P",with no effect
16,"Pericentriolar material 1 protein (Homo sapiens), Q15154 N1953S",with no effect
17,"Pericentriolar material 1 protein (Homo sapiens), Q15154 N1953T",with no effect
18,"Pericentriolar material 1 protein (Homo sapiens), Q15154 P1970C",with no effect
19,"Pericentriolar material 1 protein (Homo sapiens), Q15154 P1970E",decreasing interaction strength
20,"Pericentriolar material 1 protein (Homo sapiens), Q15154 P1970G",decreasing interaction strength
21,"Pericentriolar material 1 protein (Homo sapiens), Q15154 P1970H",with no effect
22,"Pericentriolar material 1 protein (Homo sapiens), Q15154 P1970I",decreasing interaction strength
23,"Pericentriolar material 1 protein (Homo sapiens), Q15154 P1970R",decreasing interaction strength
24,"Pericentriolar material 1 protein (Homo sapiens), Q15154 P1970S",disrupting interaction strength
25,"Pericentriolar material 1 protein (Homo sapiens), Q15154 P1970W",with no effect
26,"Pericentriolar material 1 protein (Homo sapiens), Q15154 P1970Y",disrupting interaction strength
27,"Pericentriolar material 1 protein (Homo sapiens), Q15154 Q1956C",with no effect

# Now from value to substance:
row,effect of a mutation on the interaction,Substance
1,with no effect,"Pericentriolar material 1 protein (Homo sapiens), Q15154 L1971T"
2,with no effect,"Pericentriolar material 1 protein (Homo sapiens), Q15154 L1971W"
3,with no effect,"Pericentriolar material 1 protein (Homo sapiens), Q15154 L1973A"
4,with no effect,"Pericentriolar material 1 protein (Homo sapiens), Q15154 L1973D"
5,with no effect,"Pericentriolar material 1 protein (Homo sapiens), Q15154 L1973E"
6,with no effect,"Pericentriolar material 1 protein (Homo sapiens), Q15154 L1973F"
7,with no effect,"Pericentriolar material 1 protein (Homo sapiens), Q15154 L1973G"
8,with no effect,"Pericentriolar material 1 protein (Homo sapiens), Q15154 L1973H"
9,with no effect,"Pericentriolar material 1 protein (Homo sapiens), Q15154 L1973K"
10,with no effect,"Pericentriolar material 1 protein (Homo sapiens), Q15154 L1973M"
11,with no effect,"Pericentriolar material 1 protein (Homo sapiens), Q15154 L1973Q"
12,with no effect,"Pericentriolar material 1 protein (Homo sapiens), Q15154 L1973T"
13,with no effect,"Pericentriolar material 1 protein (Homo sapiens), Q15154 L1973V"
14,with no effect,"Pericentriolar material 1 protein (Homo sapiens), Q15154 N1953A"
15,with no effect,"Pericentriolar material 1 protein (Homo sapiens), Q15154 N1953E"
16,with no effect,"Pericentriolar material 1 protein (Homo sapiens), Q15154 N1953F"
17,with no effect,"Pericentriolar material 1 protein (Homo sapiens), Q15154 N1953H"
18,with no effect,"Pericentriolar material 1 protein (Homo sapiens), Q15154 N1953K"

row,effect of a mutation on the interaction,Substance
1,with no effect,"Pericentriolar material 1 protein (Homo sapiens), Q15154 N1953L"
2,with no effect,"Pericentriolar material 1 protein (Homo sapiens), Q15154 N1953M"
3,with no effect,"Pericentriolar material 1 protein (Homo sapiens), Q15154 N1953Q"
4,with no effect,"Pericentriolar material 1 protein (Homo sapiens), Q15154 N1953R"
5,with no effect,"Pericentriolar material 1 protein (Homo sapiens), Q15154 N1953V"
6,with no effect,"Pericentriolar material 1 protein (Homo sapiens), Q15154 N1953W"
7,with no effect,"Pericentriolar material 1 protein (Homo sapiens), Q15154 N1953Y"
8,decreasing interaction strength,"Pericentriolar material 1 protein (Homo sapiens), Q15154 P1970A"
9,decreasing interaction strength,"Pericentriolar material 1 protein (Homo sapiens), Q15154 P1970D"
10,with no effect,"Pericentriolar material 1 protein (Homo sapiens), Q15154 P1970F"
11,disrupting interaction strength,"Pericentriolar material 1 protein (Homo sapiens), Q15154 P1970K"
12,decreasing interaction strength,"Pericentriolar material 1 protein (Homo sapiens), Q15154 P1970L"
13,decreasing interaction strength,"Pericentriolar material 1 protein (Homo sapiens), Q15154 P1970M"
14,decreasing interaction strength,"Pericentriolar material 1 protein (Homo sapiens), Q15154 P1970N"
15,decreasing interaction strength,"Pericentriolar material 1 protein (Homo sapiens), Q15154 P1970Q"
16,disrupting interaction strength,"Pericentriolar material 1 protein (Homo sapiens), Q15154 P1970T"
17,disrupting interaction strength,"Pericentriolar material 1 protein (Homo sapiens), Q15154 P1970V"
18,with no effect,"Pericentriolar material 1 protein (Homo sapiens), Q15154 Q1956A"
